Biological target: recombinant GST-FAM21 356–600
Test: SPR

Kd: 0.3 to 0.6 nM
Substance: MBP-CCDC93 (448–631) (from UniProt Q567U6 448-631) (domain or fragment)

From paper PMC4279232
